In the Immune Epitope Database (IEDB):

Key:
HLA-A*02:12 = assay: IEDB peptide-MHC binding, purified MHC/direct/fluorescence; filed as Kd, often an IC50 or EC50 that approximates it; ≥ and ≤ were set here for values at or beyond the usual limits of such assays
HLA-A*26:01 [1] = assay: as above
HLA-A*02:19 = assay: as above
HLA-B*57:01 = assay: as above
HLA-B*51:01 [2] = assay: as above
HLA-B*15:01 = assay: as above
HLA-B*27:03 [3] = assay: as above
HLA-B*18:01 = assay: as above
HLA-B*46:01 = assay: as above
HLA-A*02:01 = assay: as above
HLA-A*03:01 = assay: as above
HLA-B*39:01 [4] = assay: as above
HLA-A*02:16 = assay: as above
HLA-A*02:03 = assay: as above
HLA-A*31:01 = assay: as above; details: source organism: Cryptosporidium parvum
HLA-A*69:01 [5] = assay: as above
HLA-B*40:01 = assay: as above
HLA-A*24:03 = assay: as above
HLA-B*27:05 = assay: as above
HLA-B*58:01 = assay: as above; details: source organism: Cryptosporidium parvum
HLA-A*01:01 = assay: as above
HLA-A*11:01 = assay: as above; details: source organism: Cryptosporidium parvum
HLA-B*08:01 = assay: as above
HLA-B*35:01 = assay: as above
HLA-B*44:02 = assay: as above; details: source organism: Cryptosporidium parvum
HLA-A*02:50 = assay: IEDB peptide-MHC binding, purified MHC/competitive/fluorescence; filed as Kd, often an IC50 or EC50 that approximates it; ≥ and ≤ were set here for values at or beyond the usual limits of such assays; details: source organism: Cryptosporidium parvum
HLA-A*29:02 = assay: IEDB peptide-MHC binding, purified MHC/direct/fluorescence; filed as Kd, often an IC50 or EC50 that approximates it; ≥ and ≤ were set here for values at or beyond the usual limits of such assays
HLA-A*02:11 = assay: as above
HLA-B*07:02 = assay: as above
HLA-A*23:01 = assay: as above
HLA-A*68:02 = assay: as above
HLA-B*15:17 = assay: as above
HLA-C*12:03 = assay: as above
HLA-B*15:02 [6] = assay: IEDB peptide-MHC binding, purified MHC/competitive/fluorescence; filed as Kd, often an IC50 or EC50 that approximates it; ≥ and ≤ were set here for values at or beyond the usual limits of such assays; details: source organism: Shigella boydii CDC 3083-94
HLA-A*80:01 = assay: IEDB peptide-MHC binding, purified MHC/direct/fluorescence; filed as Kd, often an IC50 or EC50 that approximates it; ≥ and ≤ were set here for values at or beyond the usual limits of such assays
HLA-C*05:01 = assay: as above; details: source organism: human gammaherpesvirus 4
HLA-C*08:02 = assay: as above; details: source organism: human gammaherpesvirus 4
HLA-B*48:01 = assay: as above; details: source organism: Orthohantavirus negraense
HLA-A*69:01 [7] = assay: IEDB peptide-MHC binding, purified MHC/competitive/fluorescence; filed as Kd, often an IC50 or EC50 that approximates it; ≥ and ≤ were set here for values at or beyond the usual limits of such assays; details: source organism: Orthohantavirus tulaense
HLA-A*26:01 [8] = assay: as above; details: source organism: Orthohantavirus tulaense
HLA-B*51:01 [9] = assay: as above; details: source organism: Orthohantavirus tulaense
HLA-B*27:03 [10] = assay: as above; details: source organism: Orthohantavirus tulaense
HLA-B*39:01 [11] = assay: as above; details: source organism: Orthohantavirus tulaense
HLA-B*15:02 [12] = assay: IEDB peptide-MHC binding, purified MHC/direct/fluorescence; filed as Kd, often an IC50 or EC50 that approximates it; ≥ and ≤ were set here for values at or beyond the usual limits of such assays; details: source organism: Hantaan virus Q32
[13] = source organism: Cryptosporidium parvum Iowa II
[14] = source organism: Cryptosporidium parvum
[15] = source organism: Coxiella burnetii Q321
[16] = source organism: Toxoplasma gondii RH
[17] = source organism: Orthohantavirus negraense
[18] = source organism: Orthohantavirus tulaense
[19] = source organism: Orthohantavirus hantanense

Sequence: LPWFLDTTI
- Kd (HLA-A*02:12; [13]): ≥ 20 µM
- Kd (HLA-A*26:01 [1]; [13]): ≥ 20 µM
- Kd (HLA-A*02:19; [13]): ≥ 20 µM
- Kd (HLA-B*57:01; [13]): ≥ 20 µM
- Kd (HLA-B*51:01 [2]; [13]): 0.034 µM
- Kd (HLA-B*15:01; [13]): ≥ 20 µM
- Kd (HLA-B*27:03 [3]; [13]): ≥ 20 µM
- Kd (HLA-B*18:01; [13]): ≥ 20 µM
- Kd (HLA-B*46:01; [13]): ≥ 20 µM
- Kd (HLA-A*02:01; [13]): ≥ 20 µM
- Kd (HLA-A*03:01; [13]): ≥ 20 µM
- Kd (HLA-B*39:01 [4]; [13]): ≥ 20 µM
- Kd (HLA-A*02:16; [13]): ≥ 20 µM
- Kd (HLA-A*02:03; [13]): ≥ 20 µM

Sequence: WLPWIPQLI
- Kd (HLA-A*31:01): ≥ 20 µM
- Kd (HLA-A*69:01 [5]; [14]): 0.415 µM
- Kd (HLA-B*40:01; [14]): ≥ 20 µM
- Kd (HLA-A*26:01 [1]; [14]): ≥ 20 µM
- Kd (HLA-A*24:03; [14]): 3.44 µM
- Kd (HLA-B*15:01; [14]): ≥ 5 µM
- Kd (HLA-B*27:05; [14]): ≥ 20 µM
- Kd (HLA-B*58:01): ≥ 20 µM
- Kd (HLA-A*01:01; [14]): ≥ 20 µM
- Kd (HLA-A*11:01): ≥ 20 µM
- Kd (HLA-B*08:01; [14]): ≥ 20 µM
- Kd (HLA-A*02:01; [14]): 1.24 µM
- Kd (HLA-A*03:01; [14]): ≥ 20 µM
- Kd (HLA-B*35:01; [14]): 16 µM
- Kd (HLA-B*44:02): ≥ 20 µM
- Kd (HLA-A*02:50): 0.0046 µM

Sequence: DGAEGINPY
- Kd (HLA-A*69:01 [5]; [15]): ≥ 20 µM
- Kd (HLA-A*02:12; [15]): ≥ 20 µM
- Kd (HLA-A*26:01 [1]; [15]): ≥ 20 µM
- Kd (HLA-A*24:03; [15]): ≥ 20 µM
- Kd (HLA-A*29:02; [15]): ≥ 20 µM
- Kd (HLA-A*02:19; [15]): ≥ 20 µM
- Kd (HLA-B*57:01; [15]): ≥ 20 µM
- Kd (HLA-B*51:01 [2]; [15]): ≥ 20 µM
- Kd (HLA-B*15:01; [15]): 11 µM
- Kd (HLA-B*27:03 [3]; [15]): ≥ 20 µM
- Kd (HLA-A*02:11; [15]): ≥ 20 µM
- Kd (HLA-B*18:01; [15]): ≥ 20 µM
- Kd (HLA-B*46:01; [15]): ≥ 20 µM
- Kd (HLA-B*07:02; [15]): 8.58 µM
- Kd (HLA-A*23:01; [15]): ≥ 20 µM
- Kd (HLA-A*68:02; [15]): ≥ 20 µM
- Kd (HLA-A*02:01; [15]): ≥ 20 µM
- Kd (HLA-A*03:01; [15]): ≥ 20 µM
- Kd (HLA-B*35:01; [15]): 0.267 µM
- Kd (HLA-B*15:17; [15]): ≥ 20 µM
- Kd (HLA-B*39:01 [4]; [15]): ≥ 20 µM
- Kd (HLA-A*02:16; [15]): ≥ 20 µM
- Kd (HLA-A*02:03; [15]): ≥ 20 µM

Sequence: LTMNLVSDI
- Kd (HLA-A*26:01 [1]; [16]): ≥ 20 µM
- Kd (HLA-A*24:03; [16]): ≥ 20 µM
- Kd (HLA-B*57:01; [16]): ≥ 20 µM
- Kd (HLA-B*15:01; [16]): ≥ 20 µM
- Kd (HLA-B*27:03 [3]; [16]): ≥ 20 µM
- Kd (HLA-B*18:01; [16]): ≥ 20 µM
- Kd (HLA-B*46:01; [16]): ≥ 20 µM
- Kd (HLA-A*03:01; [16]): ≥ 20 µM
- Kd (HLA-B*15:17; [16]): 0.003 µM
- Kd (HLA-B*39:01 [4]; [16]): ≥ 20 µM

Sequence: FMAAFYRVM
- Kd (HLA-C*12:03; source organism: Shigella boydii CDC 3083-94): ≤ 0.001 µM
- Kd (HLA-B*15:02 [6]): 0.0183 µM

Sequence: MTGVMRGNY
- Kd (HLA-A*80:01; source organism: Yellow fever virus strain Ghana/Asibi/1927): 0.38 µM

Sequence: YAAPQLFPV
- Kd (HLA-C*05:01): 0.065 µM
- Kd (HLA-C*12:03; source organism: human gammaherpesvirus 4): 0.004 µM
- Kd (HLA-C*08:02): 0.069 µM

Sequence: MSRKLHRYI
- Kd (HLA-B*40:01; [17]): ≥ 20 µM
- Kd (HLA-A*02:12; [18]): ≥ 20 µM
- Kd (HLA-A*24:03; [18]): ≥ 20 µM
- Kd (HLA-A*29:02; [17]): ≥ 20 µM
- Kd (HLA-C*12:03; [18]): 0.441 µM
- Kd (HLA-B*15:01; [17]): ≥ 20 µM
- Kd (HLA-A*02:11; [18]): ≥ 20 µM
- Kd (HLA-B*27:05; [17]): ≥ 20 µM
- Kd (HLA-A*01:01; [17]): ≥ 20 µM
- Kd (HLA-B*08:01; [17]): 4.71 µM
- Kd (HLA-B*18:01; [17]): ≥ 20 µM
- Kd (HLA-B*46:01; [17]): ≥ 20 µM
- Kd (HLA-B*07:02; [17]): ≥ 20 µM
- Kd (HLA-A*23:01; [18]): ≥ 20 µM
- Kd (HLA-A*68:02; [18]): ≥ 20 µM
- Kd (HLA-A*02:01; [17]): ≥ 20 µM
- Kd (HLA-A*03:01; [18]): ≥ 20 µM
- Kd (HLA-B*48:01): ≥ 20 µM
- Kd (HLA-A*69:01 [7]): ≥ 20 µM
- Kd (HLA-A*26:01 [8]): ≥ 20 µM
- Kd (HLA-B*51:01 [9]): ≥ 20 µM
- Kd (HLA-B*27:03 [10]): ≥ 20 µM
- Kd (HLA-B*39:01 [11]): ≥ 20 µM

Sequence: HSEEGSRAY
- Kd (HLA-A*80:01; source organism: Yellow fever virus): ≥ 20 µM

Sequence: LQYAIRSVF
- Kd (HLA-B*15:02 [12]): 0.008 µM
- Kd (HLA-B*15:01; [19]): 0.004 µM
- Kd (HLA-B*46:01; [19]): 1.95 µM
